Data: IntAct's records for PubMed 29983246

B1: Mitochondrial-derived peptide MOTS-c (Homo sapiens), A0A0C5B5G6 (parent)
chain: MRWQEMGYIFYPRKLR
partner: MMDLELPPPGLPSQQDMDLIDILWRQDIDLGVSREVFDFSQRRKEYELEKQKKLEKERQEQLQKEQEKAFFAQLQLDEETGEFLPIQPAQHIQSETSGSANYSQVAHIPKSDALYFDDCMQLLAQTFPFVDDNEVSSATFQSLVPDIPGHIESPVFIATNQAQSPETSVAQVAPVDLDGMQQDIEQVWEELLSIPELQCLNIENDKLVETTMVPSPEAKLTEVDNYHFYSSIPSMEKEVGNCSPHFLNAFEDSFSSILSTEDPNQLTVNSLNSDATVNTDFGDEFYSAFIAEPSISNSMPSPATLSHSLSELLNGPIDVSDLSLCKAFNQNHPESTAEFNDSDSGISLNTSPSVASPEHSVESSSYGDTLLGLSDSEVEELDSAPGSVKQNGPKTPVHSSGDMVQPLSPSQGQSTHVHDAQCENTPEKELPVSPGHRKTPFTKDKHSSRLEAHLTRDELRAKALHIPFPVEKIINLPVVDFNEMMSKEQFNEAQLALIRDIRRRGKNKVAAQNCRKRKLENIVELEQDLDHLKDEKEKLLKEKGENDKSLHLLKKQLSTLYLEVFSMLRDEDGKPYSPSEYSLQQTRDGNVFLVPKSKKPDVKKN

Variants of: B1
Details: with nf2l2_human NFE2L2, Q16236

Variant	effect of a mutation on the interaction
R13A;K14A;L15A;R16A	with no effect
